From patent US20210292423A1 (published 2021)

Assays:
[1] = molecular target: T1, human CD123 (IL3RA) on cells (human, UniProt P26951 19-378); experiment: flow cytometry, CD123 transfected HEK293, hybridoma supernatant
T1 construct: also called CD123 transfected HEK293; THP-1
Protocol: Cells were resuspended in 200 μl Stain Buffer with FBS per well and were measured using the MACSQuant (Miltenyi Biotec) or LSRII (BD) flow cytometer. Further data analyses were performed using the FlowJo software (Tree Star, Inc.). Read out was percentage of cells positive for antibody binding. Cells treated only with the secondary but no primary antibody were used to set the gates. Curves were calculated by XLfit (Algorithm 205).

[2] = molecular target: T2, human CD123 Strep-II tagged Fc-fusion protein (human); experiment: SPR Proteon XPR36, rat IgG captured, CD123-Fc analyte
T2 construct: also called human CD123-Fc; recombinant CD123
T2 sequence (chain, as listed by the source limits assumed): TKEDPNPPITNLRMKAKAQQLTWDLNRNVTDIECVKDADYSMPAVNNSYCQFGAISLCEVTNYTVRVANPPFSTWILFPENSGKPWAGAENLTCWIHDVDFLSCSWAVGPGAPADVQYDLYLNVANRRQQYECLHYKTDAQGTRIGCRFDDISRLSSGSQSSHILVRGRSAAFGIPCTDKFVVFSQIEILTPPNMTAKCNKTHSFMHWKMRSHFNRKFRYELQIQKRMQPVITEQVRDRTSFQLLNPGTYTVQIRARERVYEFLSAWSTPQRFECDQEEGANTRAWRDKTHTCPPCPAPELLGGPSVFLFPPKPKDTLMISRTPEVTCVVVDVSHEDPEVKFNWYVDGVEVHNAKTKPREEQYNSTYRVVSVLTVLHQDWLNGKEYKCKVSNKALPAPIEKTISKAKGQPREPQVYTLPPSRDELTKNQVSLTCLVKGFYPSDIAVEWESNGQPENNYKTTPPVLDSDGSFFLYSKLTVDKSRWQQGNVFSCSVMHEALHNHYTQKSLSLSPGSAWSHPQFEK
Protocol: (§1) Screening of anti-CD123 rat IgGs for binding affinities to human CD123 and cross-reactivities to cyno CD123 was performed with hybridoma supernatants using a Proteon XPR36 (Biorad) in a one-shot kinetics approach. A capture assay was established using a goat anti-rat IgG (112-005-071, Jackson Immuno Research). The capture antibody was coated on GLC chips (176-5011, Biorad) to approx. 8000 RU in the vertical direction using the amine coupling kit (176-2410, Biorad). […] Binding kinetics with human and cyno CD123-Fc fusion protein was measured at 100 μl/min in the horizontal direction with 120 sec. and 600 sec. for association and dissociation, respectively. The CD123-Fc proteins were used in twofold dilutions from 6 nM to 100 nM. PBSET buffer (176-2730, Biorad) was used as assay buffer. Regeneration was achieved by injection of 10 mM Glycine buffer pH 1.5 for 18 sec at 30 μl/min. Data processing and analysis was performed using ProteonManager software v3.0. Fitting of the sensorgrams was done with a 1:1 Langmuir model.

[3] = molecular target: T3, Macaca fascicularis CD123 Fc-fusion protein (Macaca fascicularis); experiment: as above
T3 construct: also called cyno CD123-Fc
T3 sequence (chain, as listed by the source limits assumed): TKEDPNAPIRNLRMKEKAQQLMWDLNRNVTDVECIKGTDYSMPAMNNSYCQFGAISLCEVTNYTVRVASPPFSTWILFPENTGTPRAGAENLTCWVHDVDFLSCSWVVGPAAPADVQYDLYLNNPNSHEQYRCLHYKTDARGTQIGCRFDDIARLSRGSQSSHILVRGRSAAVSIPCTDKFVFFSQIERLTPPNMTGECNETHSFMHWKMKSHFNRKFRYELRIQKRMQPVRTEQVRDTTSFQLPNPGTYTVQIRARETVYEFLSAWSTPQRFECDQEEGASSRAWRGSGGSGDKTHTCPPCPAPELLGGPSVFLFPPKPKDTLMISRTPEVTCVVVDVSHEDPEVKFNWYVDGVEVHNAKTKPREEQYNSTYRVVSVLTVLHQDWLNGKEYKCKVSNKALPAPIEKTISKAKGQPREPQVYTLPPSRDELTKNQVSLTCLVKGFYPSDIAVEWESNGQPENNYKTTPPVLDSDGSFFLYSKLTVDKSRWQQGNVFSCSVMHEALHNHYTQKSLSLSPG
Protocol: as §1

[4] = molecular target: T4, human CD3δ expressed alone on HEK293F cells (human, UniProt P04234 22-171); experiment: flow cytometry, HEK293F transfected with huCD3δ
T4 construct: entry includes the signal peptide; also called huCD3δ
T4 sequence (P04234 22-171 limits assumed, stated change not applied): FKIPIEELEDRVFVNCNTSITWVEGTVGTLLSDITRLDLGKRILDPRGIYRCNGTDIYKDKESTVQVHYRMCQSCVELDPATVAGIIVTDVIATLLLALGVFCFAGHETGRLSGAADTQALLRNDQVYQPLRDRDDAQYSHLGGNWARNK
Protocol: To analyze binding of antibodies to human CD3ε and human CD3δ expressed on the surface of cells, HEK293F cells were transfected with both constructs either alone or in co-transfection and signals were measured by flow cytometry. For transfection procedure FuGENE HD Transfection Reagent (Promega, #E2311) was used according to manufacturer's protocol.
Cells were incubated on a shaker at 37° C. and 5% CO2. At day one to three after transfection cells were harvested and binding of antibodies was analyzed by flow cytometry.
Antibodies for staining were seeded at 1 μg in 50 μl per well Stain Buffer with FBS (BD Pharmingen) in 96-well U-bottom suspension culture plates (Greiner bio-one). Harvested transfected cells were resuspended in Stain Buffer with FBS and were added at 50 μl per well to the antibodies. Cells were incubated at 4° C. in the dark for 30 min and were washed twice. 0.5 μg secondary antibody Goat F(ab′)2 Anti-Human IgG-FITC (Beckman Coulter, #732598) or Goat F(ab′)2 Anti-Human kappa-PE (Southern Biotech, #206209), respectively, in combination with 0.5 μg 7-AAD per well was added in 100 μl Stain Buffer with FBS. Cells were incubated at 4° C. in the dark for 15 min and were washed twice. For measurement, cells were resuspended in 200 μl Stain Buffer with FBS. Cells were measured using the MACSQuant (Miltenyi Biotec) or LSRII (BD) flow cytometer, respectively. Further data analyses were performed using the FlowJo software (Tree Star, Inc.).

T1 sequence (P26951 19-378): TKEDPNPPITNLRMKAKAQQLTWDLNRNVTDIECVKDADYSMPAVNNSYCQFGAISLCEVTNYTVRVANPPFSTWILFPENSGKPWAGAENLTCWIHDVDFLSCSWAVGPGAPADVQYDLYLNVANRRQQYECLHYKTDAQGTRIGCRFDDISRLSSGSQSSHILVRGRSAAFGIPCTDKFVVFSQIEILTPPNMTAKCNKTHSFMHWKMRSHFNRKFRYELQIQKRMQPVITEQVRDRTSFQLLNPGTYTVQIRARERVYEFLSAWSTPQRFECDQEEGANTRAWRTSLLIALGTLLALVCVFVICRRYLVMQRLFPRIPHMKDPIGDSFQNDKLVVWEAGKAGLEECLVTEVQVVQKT

B1: 2F8-D6 anti-CD123 rat IgG (hybridoma supernatant) (antibody, V domains shown)
VH: QVQLKESGPGLVQPSQTLSLTCTVSGFSLTSYGVSWVRQPPGKGLEWIATISSAGSTYYDLVLKSRLSITRDTSKSQVFLKVHSLQTEDTAIYLCARDAPVFNYGSYNAMDSWGQGTSVTVSS
VL: DIQMTQSPSFLSATVGDRVTINCKASQNINKYLNWYQQKLGEAPKRLIYNTNSLQTGIPSRFSGSGSGTDYTLTISSLQPEDVATYFCLQHKSGLTFGSGTKLEIK
notes: rat IgG; also called BFX - 2F8
What does the source list for B1?
EC50 [1]: 3.4 ng/mL; Kd [2]: 0.53 nM; koff [2]: 6.6e-05 s⁻¹; kon [2]: 130000 M⁻¹ s⁻¹; Kd [3]: 0.51 nM

B2: 2B8-F3 anti-CD123 rat IgG (hybridoma supernatant) (antibody, V domains shown)
VH: EVQLVESGGGLVQPGRSLKLSCAASGFTFSDYNMAWVRQAPKKGLEWVATILYDGGRTYYRGSVKGRFTISRDNAKSTLYLRMDSLRSEDTATYYCATHSRGTDYFDYWGQGVMVTVSS
VL: EIVLTQSPTSMTASPGEQVTITCRASSSINYMHWYQQKPGASPRPWIYETSKLASGVPDRFSGSASGTSYSLTINNMEAEDAATYYCQQWNYPSWTFGGGTKLELK
notes: rat IgG; also called BFX - 2B8
How did the EC50 [1] turn out when B2 was run?
Its EC50 is 5.5 ng/mL.

And the Kd [2]?
The Kd was 0.018 nM.

What about the koff [2] of the same binder?
The koff was 1.2e-05 s⁻¹.

And the kon [2]?
Its kon is 660000 M⁻¹ s⁻¹.

And the Kd [3]?
The Kd was 0.77 nM.

B3: 3B10-E6 anti-CD123 rat IgG (hybridoma supernatant) (antibody, V domains shown)
VH: QVQLQQSGPELRRPGSSVRLSCKASGYRIKDFLIHWIKNRPEHGLEWIGWIDPEDGETKYAQKFQTKATLTADTSSNTAYMQLSSLTSEDTATYFCARWGDVYYGLMRGHVMDAWGQGTSVTVSS
VL: DVLMTQTPVSLPVSLGGQVSISCRSSQSLVHSDGDTYLHWYLQKPGQSPQLLIYRVSNRFSGVPDRFSGSGSGTDFTLKISRVEPEDLGLYYCLQTTHFPPWTFGGGTKLEMK
notes: rat IgG; also called BFX - 3B10
Which EC50 [1] does the source give for B3 here?
The EC50 was 2 ng/mL.

And the Kd [3]?
Its Kd is 0.27 nM.

B4: 5B1-G2 Fab (Fab, V domains shown)
VH: EVQVVETGGSLVQPGKSLKLTCATSGFSFSNAWMHWVRQSPEKQLEWVAQIKDKANNYATYYAESVKGRFTISRDDSKGSIYLQMNSLKEEDTAVYYCRGLYYGLFPSDYWGQGVMVTVSS
VL: DVVMTQTPVSLSVSLGGQVSISCRSSQSLVHNNGNTYLSWYLLKPGQSPQLLIYKVSNRFSGISDRFSGGGSGTDFTLKISRLEPDDLGIYYCGQGTQYPFTFGSGTKLEIK
Does B4 bind [4]?
Result: no binding (tested: <20% of binding of huCD3e + huCD3d)

B5: 1E1-G5 anti-CD123 rat IgG (hybridoma supernatant) (antibody, V domains shown)
VH: QVQLQESGPTLVKPGDSVKMSCKAFGYTFTDHIIHWVKQSHGKSLEWIGYINPYSGGTNYNEKFKSKATLTVDKSSSTAYMEFSRLTSEDSAICYCALNYGSYYAMDAWGQGTSVTVSS
VL: DIQMTQSPASLSASLGQTVTIECRPSEDIYSNLAWFQQKPGSSPQLLIYDANNLADGVPSRFSGSGSGTQYSLKINSLQSEDVASYFCQQYNKYPYTFGTGTKLELK
notes: rat IgG; also called BFX - 1E1
B5 was tested. Which EC50 [1] did it give?
Its EC50 is 2.2 ng/mL.

And the Kd [2]?
The Kd was 0.23 nM.

What about the koff [2] of the same binder?
Its koff is 0.00011 s⁻¹.

What about the kon [2] of the same binder?
The kon was 460000 M⁻¹ s⁻¹.

And the Kd [3]?
Its Kd is 0.72 nM.

B6: 6D6-B8 anti-CD123 rat IgG (hybridoma supernatant) (antibody, V domains shown)
VH: QVQLQESGPTLVKPGDSVKMSCKASAYTFTDNIIHWVKQSHGKSLDWIGYINPYSGGTNYNGWFRSKATLTVDKSSSTAYMEFSRLTSDDSAIYYCALNYGSYYAMDAWGQGTSVTVSS
VL: DIQMTQSPASLSASLGETVTIDCRPSEDIFNNLAWYQQKPGNSPQLLIYDANSLADGVPSRFSGSGSGTQYSLMIIRLQSEDVASYFCHQYNIYPYTFGAGTKLELK
notes: rat IgG; also called BFX - 6D6
Which EC50 [1] does the source give for B6 here?
Its EC50 is 0.9 ng/mL.

B7: 12D2-E5 Fab (Fab, V domains shown)
VH: EVKLVESGGGLVQPGRSLRLSCAASGFNFYAYWMGWVRQAPGKGLEWIGEIKKDGTTINYTPSLKDRFTISRDNAQNTLYLQMTKLGSEDTALYYCAREERDGYFDYWGQGVMVTVSS
VL: QFVLTQPNSVSTNLGSTVKLSCKRSTGNIGSNYVNWYQQHEGRSPTTMIYRDDKRPDGVPDRFSGSIDRSSNSALLTINNVQTEDEADYFCQSYSSGIVFGGGTKLTVL
Does B7 bind [4]?
Result: no binding (tested: <20% of binding of huCD3e + huCD3d)
